The values below come from US11236367B2, “Fatty acid decarboxylase and its uses” (COMMISSARIAT A L'ENERGIE ATOMIQUE ET AUX ENERGIES …, priority 2016, dated 2022).

The test system of series [1] is Chlamydomonas strain. Briefly: Hydrocarbons in Chlamydomonas strain with chloroplast genome transformed with the Chlorella enzyme cDNA. It counts as cell-based, Chlamydomonas reinhardtii. To be noted: chloroplastic genome transformed with cDNA of the enzyme. As for the experimental part:
Chlamydomonas reinhardtii CC124 (nit1 nit2; mt−) and Chlamydomonas reinhardtii overexpressing the alkane synthase gene were cultured in minimal medium (Harris, 1989) in one liter photobioreactors (BIOSTAT Aplus, Sartorius Stedim Biotech) operated as turbidostats. A880 was measured continuously using a biomass probe (Excellprobe, Exner) and cultures were maintained at constant A880 by injection of fresh medium. The pH was maintained at a constant value of 7 by injection of KOH (0.2 N) or HCl (0.2 N). The cultures were stirred using a metal propeller (250 rpm). The gas flow rate was adjusted to 0.5 L min^−1. Air enriched with 2% (v/v) CO2 was generated using mass flow meters (EL flow, Bronkhorst). White light was supplied by eight fluorescent tubes (Osram Dulux L 18 W) placed radially around the photobioreactor. We used a blue filter (363 special medium blue, Lee filters, USA) and a red filter (113 magenta, Lee filters, USA) to provide respectively blue and red light. Both lights were at same intensity (35 μmol photons m^−2s^−1).
To quantify hydrocarbons together with fatty acids, transmethylation of whole cells was used. […]

Series [2] deals with E. coli cells. Briefly: Hydrocarbon content of E. coli cells expressing algal GMC oxidoreductase. It counts as cell-based, Escherichia coli. To be noted: no fatty acid substrate added; absent with empty vector. The source says: Chlamydomonas reinhardtii and Phaeodactylum tricornutum Alkane synthase was amplified from a synthetic gene codon-optimized for E. coli using for Chlamydomonas reinhardtii a primer forward 5′-[…]-3′ (SEQ ID No 29) and a primer reverse, 5′-[…]-3′ (SEQ ID No 30). For Phaeodactylum tricornutum, forward primer 5′-[…]-3′ (SEQ ID No 31), reverse primer 5′-[…]-3′ (SEQ ID No 32). Genes were cloned into pLIC07 vector, which introduced downstream of the ATG start codon a cassette coding for a 6 His-tagged thioredoxin and a tobacco etch virus (TEV) protease-cleavage site. E. coli strain expressing the GMC oxidase from Chlorella variabilis NC64A, Chlamydomonas reinhardtii or Phaeodactylum triconutum were grown at 37° C. with agitation at 180 rpm and light at 100 μmole.photon.m^−2·s^−1. When OD reached 0.6, 500 μM of isopropyl β-D-1-thiogalactopyranoside was added. Cells were then grown for 24 hours at 37° C., harvested, transmethylated using methanol added with 5% sulfuric acid and hydrocarbons were extracted with hexane and analyzed by GC-MS as previously described.

Series [3] deals with T1, Chlorella GMC oxidoreductase (Chlorella variabilis, UniProt A0A248QE08).
T1 construct: 6 His-tagged thioredoxin (N, cleaved yes); TEV protease-cleavage site (N, cleaved yes); made in house; host or cells: E. coli BL21-CodonPlus (DE3)-RIL
The experiment in a line: Enzymatic assay with purified recombinant enzyme (GC-MS of products). To be noted: for fatty acid substrate range of the enzyme: purified recombinant enzyme, white light. The format is biochemical, Chlorella variabilis NC64A. As for the experimental part: (§1) All assays were performed in transparent glass vials sealed using caps with septum. Optimum pH was determined using a Teorell Stenhagen universal buffer (33 mM citric acid monohydrate, 33 mM phosphoric acid, 100 mM NaOH, 16.7 mM of boric acid, pH 8.5 adjusted with 1N HCl). Other assays were performed in 100 mM Tris HCl pH 8.5, 100 mM NaCl. Reaction mixtures (500 μL) typically contained 160 nM purified enzyme (stock ? solution 2.5 mg ml^−1) and 400 μM substrate (stock solution 10 mM in ethanol). In some assays, a lipase was used with the alkane synthase. In this case, substrate was a triacylglycerol. Generally, samples were shaken at 200 rpm during 15 min under LED-made white light at 2000 μmol ? photons m^−2s^−1. After the incubations, samples were heated at 95° C. during 15 min to stop the enzymatic reaction. Samples were cooled down and internal standard (hexadecane) was added (45 nmol from a 4.5 mM stock solution in chloroform). NaOH was then added to the reaction mixture (10 μL from a stock solution of 10 M) and samples were vortexed for 5 min. Then 250 μL of hexane was added and samples were vortexed for 5 min to extract alkanes and alkenes. The hexane phase was collected by centrifugation and analyzed by GC-MS-FID. The analysis was done by direct injection of 100 μl of the headspace into a GC-MS. In FIG. 11 activity on 1-^13C-palmitate was monitored by release of ^13CO2 using membrane inlet mass spectrometry. Illuminations were provided by CBT-120 LEDs (Luminous, Billerica) either blue (peak at 460 nm, 25 nm FWHM), or red (peak at 635 nm, 15 nm FWHM) at an intensity of 850 μmol photons m^−2 s^−1.

The target in series [4] is T1, Chlorella GMC oxidoreductase. The experiment in a line: 13CO2 release from 1-13C-palmitate with the purified enzyme (membrane inlet mass spectrometry). It counts as biochemical, Chlorella variabilis NC64A. To be noted: CO2 production monitored, light on/off. As for the experimental part:
as §1, with “Then 250 μL of hexane was added and samples were vortexed for 5 min to extract alkanes and alkenes.” left out, “The analysis was done by direct injection of 100 μl of the headspace into a GC-MS.” left out, “Illuminations were provided by CBT-120 LEDs (Luminous, Billerica) either blue (peak at 460 nm, 25 nm FWHM), or red (peak at 635 nm, 15 nm FWHM) at an intensity of 850 μmol photons m^−2 s^−1.” left out
Online measurements of ^12CO2 (m/z=44) and ^13CO2 (m/z=45) were monitored using mass spectrometry (model Prima B, Thermo Scientific). […]

The test system of series [5] is E. coli cells. The experiment in a line: Co-expression in E. coli of a GMC oxidoreductase and a lipase. The conditions noted are these: compared to E. coli strains expressing the GMC oxidoreductases alone. The format is cell-based, Escherichia coli. As for the experimental part: E. coli strain transformed with a vector expressing the GMC oxidase from Chlorella variabilis NC64A (or Chlamydomonas reinhardtii) and/or a vector expressing the lipase from the bacterium Staphylococcus hyicus, were grown in TB medium at 37° C. Expression was induced with 1 mM of isopropyl β-D-1-thiogalactopyranoside (added with 0.2% arabinose for co-expression). Cells were then grown overnight at 25° C. at 100 μmole.photon.m^−2·s^−1 and 6 h at 2000 μmole.photon.m^−2·s^−1. Cells were harvested (4 ml at OD=5), transmethylated using methanol added with 5% sulfuric acid and hydrocarbons were analyzed by SPME and GC-MS as previously described.

B1: Chlorella GMC oxidoreductase: GMC protein from Chlorella variabilis NC64A; 69 kDa FAD-dependent fatty acid decarboxylase (alkane synthase) (protein, listed as Chlorella variabilis)
chain: RASAVEDIRKVLSDSSSPVAGQKYDYILVGGGTAACVLANRLSADGSKRVLVLEAGPDNTSRDVKIPAAITRLFRSPLDWNLFSELQEQLAERQIYMARGRLLGGSSATNATLYHRGAAGDYDAWGVEGWSSEDVLSWFVQAETNADFGPGAYHGSGGPMRVENPRYTNKQLHTAFFKAAEEVGLTPNSDFNDWSHDHAGYGTFQVMQDKGTRADMYRQYLKPVLGRRNLQVLTGAAVTKVNIDQAAGKAQALGVEFSTDGPTGERLSAELAPGGEVIMCAGAVHTPFLLKHSGVGPSAELKEFGIPVVSNLAGVGQNLQDQPACLTAAPVKEKYDGIAISDHIYNEKGQIRKRAIASYLLGGRGGLTSTGCDRGAFVRTAGQALPDLQVRFVPGMALDPDGVSTYVRFAKFQSQGLKWPSGITMQLIACRPQSTGSVGLKSADPFAPPKLSPGYLTDKDGADLATLRKGIHWARDVARSSALSEYLDGELFPGSGVVSDDQIDEYIRRSIHSSNAITGTCKMGNAGDSSSVVDNQLRVHGVEGLRVVDASVVPKIPGGQTGAPVVMIAERAAALLTGKATIGASAAAPATVAA
For B1, in series [1], the “change of hydrocarbon content in transformed Chlamydomonas strain” value was “an increase was noted in the heptadecene content, and heptadecane also appeared”. The “hydrocarbons formed in E. coli cells expressing the enzyme” value (from here on “hydrocarbons formed”) in series [2] was “presence of long chain alkanes from 13 to 17 carbons”. In series [3], the “dependence of pentadecane production on light intensity” value was “increases linearly with light intensity” and the “fatty acid substrate range of the enzyme” value is on record as “active on a variety of saturated free fatty acids ranging from C12 to C22 carbons”. Moreover, the “fatty acid substrate range of the enzyme” value in series [3] (listed as Chlorella alkane synthase) is given as “can use C12 to C22 fatty acids”. Moreover, in series [4], the “dependence of enzyme activity on light” value is “stops immediately when light is turned off”. Further, the “increase in most hydrocarbons on co-expression with bacterial lipase (Uniprot P04635)” value in series [5] is listed as “two to three-fold increase”.

B2: Phaeodactylum enzyme: GMC oxidoreductase of the diatom Phaeodactylum tricornutum expressed in Escherichia coli (protein, listed as Phaeodactylum tricornutum)
chain: YDYIICGGGLAGCVLAERLSQDESKRVLVLEAGGSDYKSLFIRIPAGVLRLFRSKYDWQHETGGEKGCNGRNVFLQRGKILGGSSCTNVCLHHRGSAEDYNSWNIPGWTATDVLPFFKQSQKDETGRDATFHGADGEWVMDEVRYQNPLSKLFLEVGEAAGLGTNDDFNNWSHPQDGVGRFQVSEVNGERCSGATAFLSKAAKRSNVIVRTGTMVRRIDFDETKTAKGITYDLMGDDTCTTFQACLKEGGEVLVTGGAIASPQLLMCSGIGPGKHLRSLGIPVVHDNSAVGENLQDHPAAVVSFKTPQKGVSVTSKLRLFGKTNPIPVFQWLFFKSGLLTSTGCDHGAFVRTSDSLEQPDLQIRFLAARALGPDGMTTYTKFRTMKTVEDGYSFQSVACRAKSKGRIRLSSSNSHVKPMIDGGYLSNQDDLATLRAGIKLGRMLGNRPEWGEYLGQEVYPGPDVQTDEEIDEYIRNSLHTANALTGTCKMGTGRGAVVGPDLRVIGVNGVRVGDSSVFPCIPGGQTATPTVMIGDRAAVFVRQPVSQLNIEIFREKGGTHPGATTASA
For the molecule B2, the “hydrocarbons formed” value in series [2] was “albeit in lower amounts”.

B3: Chlamydomonas enzyme: GMC oxidoreductase of Chlamydomonas reinhardtii expressed in Escherichia coli (protein, listed as Chlamydomonas reinhardtii)
chain: LSVRAAAGPAGSEKFDYVLVGGGTASCVLANKLSADGNKKVLVLEAGPTGDAMEVAVPAGITRLFAHPVMDWGMSSLTQKQLVAREIYLARGRMLGGSSGSNATLYHRGSAADYDAWGLEGWSSKDVLDWFVKAECYADGPKPYHGTGGSMNTEQPRYENVLHDEFFKAAAATGLPANPDFNDWSHPQDGFGEFQVSQKKGQRADTYRTYLKPAMARGNLKVVIGARATKVNIEKGSSGARTTGVEYAMQQFGDRFTAELAPGGEVLMCSGAVHTPHLLMLSGVGPAATLKEHGIDVVSDLSGVGQNLQDHPAAVLAARAKPEFEKLSVTSEVYDDKCNIKLGAVAQYLFQRRGPLATTGCDHGAFVRTSSSLSQPDLQMRFVPGCALDPDGVKSYIVFGELKKQGRAWPGGITLQLLAIRAKSKGSIGLKAADPFINPAININYFSDPADLATLVNAVKMARKIAAQEPLKKYLQEETFPGERASSDKDLEEYIRRTVHSGNALVGTAAMGASPAAGAVVSSADLKVFGVEGLRVVDASVLPRIPGGQTGAATVMVAERAAALLRGQATIAPSRQPVAV
For B3, the “hydrocarbons formed” value in series [2] is “formation in E. coli cells of pentadecane and heptadecane as well as their monounsaturated analogs”. For the same molecule, in series [5], the “increase in most hydrocarbons on co-expression with bacterial lipase (Uniprot P04635)” value is recorded as “two to three-fold increase”.
